Test results published in the supplement of paper PMC10567573.

B1: CPOX (parent)
chain: HAPTIHFNYRYFEVEEADGNKQWW

Variants of: B1
Assay: protein stability index of a GFP-peptide fusion (GPS, HEK-293T) (PSI 1-6); higher = more stable
Details: c terminus: a fixed tail appended
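Further: lentivirally expressed fusions sorted by FACS into six bins by GFP to DsRed ratio, PSI derived from sequencing read proportions per bin multiplied by bin number.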

Protein stability index of substitutions, site by site:
F12: K 3.04; G 3.51; D 3.51; H 3.01; Q 2.63; T 3.08; I 2.33; S 2.87; L 2.64; E 2.99; M 2.52; R 2.96; N 3.05; P 3.12; W 1.99; Y 2.84; C 2.02; A 2.49
E13: W 2.31; P 1.86; Q 2.17; H 2.09; C 2.07; N 2.15; T 1.67; A 1.97; D 2.36; K 1.8; S 1.45; V 2.52; F 1.63; Y 1.7; G 2.06; I 2.04; R 1.56; M 2.22; L 1.41
V14: A 2.52; F 2.11; P 2.29; D 3.06; S 2.44; C 1.82; L 2.37; H 2.4; E 3.62; Y 2.23; K 2.85; W 2.35; M 2.06; N 2.42; Q 2.85; R 2.29; I 2.44; G 3.15; T 2.43
E16: L 1.44; D 2.13; T 2.53; C 1.67; A 1.67; R 1.91; S 2.24; H 1.82; P 1.83; F 1.44; K 2.18; M 2.81; Q 2.39; I 2.29; Y 1.37; G 2.21; N 1.83
A17: I 1.86; R 2.02; M 2.27; C 2.08; Q 2.31; F 1.97; E 3.01; H 1.89; Y 1.77; T 2.35; K 2.9; P 2.05; S 2.23; D 2.6; L 1.96; N 3.19; V 1.9; G 2.57
R10: A 2.56; Y 2.27; L 2.25; N 2.12; E 2.7; P 2.38; T 2.55; F 1.77; V 2.48; W 1.99; D 3.03; I 2.87; S 2.07; K 2.47; G 2.42; C 1.5; H 2.44; Q 2.81; M 2.37
Y9: P 3.1; W 3.32; V 2.25; L 3.03; M 2.6; N 3.16; T 2.79; R 3.23; Q 2.82; K 3.37; I 2.22
D18: F 3.24; L 1.3; A 2.6; E 2.63; G 2.45; H 2.86; I 1.5; C 1.61; K 2.16
E15: S 2.49; C 2.15; P 2.13; V 1.79; L 2.49; R 1.41; Y 1.9; H 1.5; A 1.93; K 2.56; I 2.7; F 2.14; D 2.58; Q 2.2; N 1.84; G 2.04; W 2.4; M 2.35; T 1.81
Y11: W 2.79; M 2.42; V 2.12; D 3.12; C 1.99; G 2.62; R 2.36; T 3.23; N 2.98; H 3.13; S 2.92; I 2.16; A 3.23; F 2.26; E 3.35; P 2.98; L 2.39; K 2.84
